The text below walks through data of a protein production outcome set (Wang et al. 2014).

The series can be described thus: label from the status in PepcDB records.
In the case of “MIKLIKNEIIKMLFKKKVILIMAIILIEACAFAYGQNNKYQRTVRSYVNSNSSSYNWRPLINQQIQDLQSKLKYRTVKKSEEKSINIQMEQYRYYLKNNINPITPTAGNFTSNIMAQSVTLLLPLLVIILASDIVSSEFSSRTIKVLLTRAVPRWKILLSKYIALIIMSAFVVFLTTIIPLIVSLVVFKRTGFGEPVITGYKVIAGKVDASNVVGIYQWYYILIMSALSFFISIVVGSISFMISIFVKSIGASIGIMMSALIGGNILSVFLDDIEAAKYFFVVNLNLPQYLTGKMRIVSGMNFDFSIMVLLIWSMASIVISFYVFNKKDVLV”, the protein production entry is reported as “failed”.
Consider “MIKLPVLLADINIQSLPTEPELILNNLAITTLVENLIILLLVATLVALVARWLKIPYVIGLVLAGLAIPRGLSVGLNPELILNFFLPILIFEAAINTDISRLRSTIKPITVLAGPGVVISAAITAVLLKIGLGLAWVTAAGVSVILTITDTVSVIAAFRSVPVPRRLATIVEGESMLNDGVAMVLLSVITTIHIQGGFSAGEGIRQIFVAFVGGGLVGLGLGYLCVGLFRQLNDDLSDILLTVSVSLGTFQIGQMLGVSSAIAVVVAGLVIGNLALKQTSASIKVTLLSFWEYAGFGVNTLIFLLVGIEVYPSILLSTIPAALIAIVAYQIGRVFSIYPLLYLLSFFDRPLPLRWQHVLIAGNVKGSLSMALALALPLTLPGRDQVVTLVFSTVMVSLIGQGLSLPWVVKKLQLSKPSPLAQKIAMLQLNLVTAKAAQGELKYLLEAGSLPKFLYEELFADYQARIANSEQELREFYNQRNLIFSEGEVEKKYIDGLYRRLYIAEKSAINDALAKGILADDISDEYLQVLNEKLLALQDD”, for which the protein production result was “failed”.
For “MIKLYSPYAFLSKYLGAILLSFFCYYAKEIGCNNLTLSVWNDNEGALRFYQRQGMKPQETTMEMIID” the value was “failed”; for “MIKPELPSNEAERLAALRQYDVLDSPAERAFDDLTMIASTLCETQMAAVVLVDEDRQWFKSAHGAPRSEAPRDISFCAHAILRPDEVLMVDDTLLDPRFHDNPMVVGSGGVRFYAGAPLVTSQGMALGSLCVFDQAPAHLREDQREALQALSRQASQLLELRLAGRQLRQQLHEREWYEQQMAGYYAQMDALHADLVEQTRTDPLTGLPNRRAFAVALAAATEQTRAVGQPLSVALLDVDHFKTVNDVHGHDQGDAVLRELSTLLRAHMAGAGTIARYGGEEFVLLLPNANLLQARVQCEYLRQSVAAMTIALPVTVSIGVATLYPQESVEAVIKRADQALYAAKRGGRDQVVALE”, “failed”; for “MIKSIKKNLKPKILISNLILIIGIVIFVTLYGAVFGSANSLVGVCAITAMLMFVDVHLSLKLNEAIITTVLSFVLMGVSSQIASINPFLGFVVNFISIFVVSYLVTNAMETKAYLPFILCYVFIEGTPITWSELPRRLIALFVGGALIALVYYFSHRKKDDSDHMNISEMIKTMNKNTLQFNFSLRMALAVSIAMLLGSILGFQKSMWISITAMSITQPHFDDTKTRVKERFFGTLIGSAIFVLIFVYIVPQQFSSIVLLILSYIYTFIKEYKIKMIFITMSSLGAAMILFQPGVSVPMRIAFIVMGIGIALVVNKVIYGRLKLEESNEELDETIKDIDKVNDEF”, “failed”.
For “MIKTEKNQTSKVTDEVDQLVQRSKKALAILKSYTQAQIDDLCEKVAVAALDNHMKLAKLAVEETGRGVVEDKAIKNIYASEYIWNSMRHDKTVGVIKEDDEEQLMEIAEPVGIVAGVTPVTNPTSTTVFKTLISLKGRNTIVFGFHPQAQKCSSAAADVMREAIKAAGGPADAVLYIEHPSIEATDALMHHTDVATILATGGPSMVTAAYSSGKPALGVGPGNGPTYVEKTADIKQAVNDIVLSKTFDNGMICASE” the value was “failed”; for “MIKVKSPGRVNLIGEHTDYTYGYVMPMAINLYTKIEAEKHGEVILYSEHFGEERKFSLNDLRKENSWIDYVKGIFWVLKESDYEVGGIKGRVSGNLPLGAGLSSSASFEVGILETLDKLYNLKLDSLSKVLLAKKAENEFVGVPCGILDQFAVVFGREGNVIFLDTHTLDYEYIPFPKDVSILVFYTGVRRELASSEYAERKHIAEESLKILGKGSSKEVREGELSKLPPLHRKFFGYIVRENARVLEVRDALKEGNVEEVGKILTTAHWDLAKNYEVSCKELDFFVERALKLGAYGARLTGAGFGGSAIALVDKEDAETIGEEILREYLKRFPWKARHFIVEPSDGVGI”, “not failed”; for “MILLSFNILVLYQNVQISLSSGICFRLYSEVLSYILIYVAVWLTLYGIDLLNTVYGASDSRSVSKSAVSKRTLAVLPCSSCRINKRCIENGHLQSATNKTSFVC”, “failed”.
For “MILPEYNETDFMQAVINAAPTPIFYKDAQGRYLGCNKAFEEYIGLNREQLIGKSVLELFDDELARTYFEADNALFERKGTQIYEAKVEYADGTTHDVMFHKAYFHAEGIEGIVGSILDITERKKAEKSLEQLALSDSLTGLDNRYSLMKSLKHSLLRQHRENFTLAFLMLDLDGFKQINDNYGHPVGDALLIEVANKLKNHFRESDVIARVGGDEFSVILENIHSTESLIVLANNILAEFLKPFVIDNNKFTIGISIGIATSSFSECSSEDIIKHADAALYQVKNSGKGSYHLTVVN” the value was “failed”; for “MILPPIPTPFDREGRLDEEAFRELAQALEPLVDGLLVYGSNGEGVHLTPEERARGLRALRPRKPFLVGLMEETLPQAEGALLEAKAAGAMALLATPPRYYHGSLGAGLLRYYEALAEKMPLFLYHVPQNTKVDLPLEAVEALAPHPNVLGIKDSSGDLSRIAFYQARLQEFRVYTGHAPTFLGALALGAEGGILAAANLAPRAYRALLDHFREGRLAEAQELQKKLFPLGDLLAKGGVPLLKQALRHLGLPAGYPRPPYPAESPLWERFLPVLEGLKEEGWVL”, “not failed”; for “MILPTKAMATQELTVKRKLSGNTLQVQASSPVALGVRIPTVALHMMELFDTTVEQLYSIFTVKELTNKKIIMKWRCGNWPEEHYAMVALNFVPTLGQTELQLKEFLSICKEENMKFCWQKQHFEEIKGSLQLTPLNG”, “failed”.
Turning to “MILQSTSLFCKYINNCRYINREIVATLKASPQGLARIKQARSDRGWSVDDFRWLELASEILGVCWQENGVLAAGISEGTWKRFLAGKQAINAEAFKAYCQVLGLNWEEVQEGGRTKERKDTGTSRQEKFLSSSHPHTDWGEAPDVSIFYGRSEELDTVKRWVTQENCRLITLLGMGGIGKTTLSVKLAQEIINSEKIYLSQSPEYIIWRSLRNAPPVEDILAELIQFLSGQQETNLSNHLQGRISLLLKNLRSSRCLIILDNAESILQAGDRNGRYRAGCEGYGQFLQCIAETSHQSCLILTSREKPQGLAKYEGDSLPVRSLPLTGLQEQEGRELFNVKGKFAASCDQWQVLISRYGGNPLALKIVASSIRDFFDGDVSQFLEVSQQGTFIFDDIRDLLDQQFQRLTTLEREIMYWLAINREPVTLAELQADFVANIPPRELLESLSSLQRRSLIEKSAGGFTQQPVVMEYVSNHLIEQVCEEMREWGLVRSRGAEEQRSRGEKIHTQYKLNAALPLTALSTPLFTTHALIKAQAKDYVRESQISLILQPLINQLITEFGSLENISNCLVHILSRLRGKSPQETGYAGGNVLNLLHHAQVDLSGYDFSGLTVWQAYLQGVNLHDVDFANSDLSCCVFTETLGNILSAAFSPEGQLLATCDTDCHVRVWEVKSGKLLLICRGHSNWVRFVVFSPDGEILASCGADENVKLWSVRDGVCIKTLTGHEHEVFSVAFHPDGETLASASGDKTIKLWDIQDGTCLQTLTGHTDWVRCVAFSPDGNTLASSAADHTIKLWDVSQGKCLRTLKSHTGWVRSVAFSADGQTLASGSGDRTIKIWNYHTGECLKTYIGHTNSVYSIAYSPDSKILVSGSGDRTIKLWDCQTHICIKTLHGHTNEVCSVAFSPDGQTLACVSLDQSVRLWNCRTGQCLKAWYGNTDWALPVAFSPDRQILASGSNDKTVKLWDWQTGKYISSLEGHTDFIYGIAFSPDSQTLASASTDSSVRLWNISTGQCFQILLEHTDWVYAVVFHPQGKIIATGSADCTVKLWNISTGQCLKTLSEHSDKILGMAWSPDGQLLASASADQSVRLWDCCTGRCVGILRGHSNRVYSAIFSPNGEIIATCSTDQTVKIWDWQQGKCLKTLTGHTNWVFDIAFSPDGKILASASHDQTVRIWDVNTGKCHHICIGHTHLVSSVAFSPDGEVVASGSQDQTVRIWNVKTGECLQILRAKRLYEGMNITGVTGLTKATIFTLQALGALR”, the protein production result is given as “failed”.
Turning to “MILSLCCLGSWPAILTLLERRGRLPQHTFLDFATANLLAAIVIAFSLGEIGKSTFLKPDFTTQLPQDNWPSVLLAVAGGVLLSIGNLATQYAFAFVGLSVTEVITASITVVIGTTLNYFLDNKINKAEILFPGVGCFLIAVFLGAAVHASNAADVKEKLKSLPSEDLYSSIENGEDKPEIEKTDVESQEKLAEKAKAGTAGFYVELENKRAIKVFGKSIMIGLFITLFAGISLSLFSPAFNLATNDQWSTLPKGVPKLVVYTAFFYFSIAGFLISLILNLIFLYRPMVGLARSSLKKYIYDSKGRGWAVFAGFLCGFGNGLQFMGGQAAGYAAADSVQALPLVSTFWGIVLFGEYRKSSKRTYALLVSMLAMFVAAVAILMASSGHRK”, the protein production result is “failed”.
On to “MILTYHNMYYYQNESRDIAAALLIMTLAFFILLNGLGFYGLLSLIYLAIAFLVVVTAFLFHELAHRAVARRLGAVAFFKLWPIGAFLALITSLFHFLFAAPGAVEFAGVYDNESQGKIALAGPATNIIIGIITYILSIFSLGIVHYVLYYVGALNLWFALFNMIPIPPLDGSKVFYWKGSIFAGVFVFTIIMNIVDGFLLHII”, for which the protein production entry is “failed”.
Next, “MILVPIDISDKEFTERIISHVESEARIDDAEVHFLTVIPSLPYYASLGMAYTAELPGMDELREGSETQLKEIAKKFSIPEDRMHFHVAEGSPKDKILALAKSLPADLVIIASHRPDITTYLLGSNAAAVVRHAECSVLVVR”: “not failed”; “MIMANWQSIDELQDIASDLPRFTHALDELSRRLGLDITPLTADHISLRCHQNVTAERWRRGFEQCGELLSENMINGRPICLFKLHEPVQVAHWQFSIVELPWPGEKRYPHEGWEHIEIVLPGDPETLNARALALLSDEGLSLPGISVKTSSPKGEHERLPNPTLAVTDGKTTIKFHPWSIEEIVASEQSA”: “not failed”.
As to “MIMFNYQQTSQSCVKCGKCIPSCTIYNIHPDEVTSPRGFIDLLGAYQRGELELDKNAKDIFEKCFLCTNCTYVCPNLLPTDQVIENVRAEIAQKFGIAWFKRAYFFLLRNRWLMDWGFALGSVFTPLLFKNLPKHQSVKPRFKLPLIGERVFMWLRFKSFMESYPEETLNSDRENPRRVAIFIGCLANYNYTKIGDSLMEILKELRIDAFIPKKQQCCGAPAYFTGDFPTVDKLIKQNVTYFESFIDEVEAIIIPEATCSAMILEDWERFMHNQPEWRERIARLLPKIFIASDWLYHKTDLLKRLEALSVKMDKSITYHDPCHARKVLGVFKEPRALLGANYKIVEMSDPNQCCGFGGVTLQTEKYQYSKKVGIAKTKMIQETGAKIVSAECSACRMQLTNALDHEKIDVEFAHPLELIAEALKARG”, the protein production entry is recorded as “failed”.
For the sequence “MINEFFKETVWEEAWKEDQQTAVNKMKKAGMDKVHHFDLRAKSFNEQAFNEEGRKRTKRIMKWLEGQGVTFKDTSILDIGAASGGFTVPFAERGAEVTAVEPSLPLVELMKENITGITNGKVKIVAEPFEDIDIQAKGWGNAFDFVFVSMCPAIADWESVKRVLSCARQFCYISLSAGSREHSLLNEIWPLVSDQPLKNEHSEMAYLLHLLFLKGYTYESLVTREMKTREVSRETALNEVMDMLRMFGLPADDRNRKITAAYLERTYPNDKVEIRQGGRFGKVLIRLQNQNMYMNS”, the protein production entry is “failed”.
For “MINEHYIPQAVILANGEYPAHELPLRLLAEAQFVVCCDGAANEYISRGHTPDVIIGDGDSLLPEYKKRFSSIILQISDQETNDQTKAVHYLQSKGIRKIAIVGATGKREDHTLGNISLLVEYMRSGMEVRTVTDYGTFIPVSDTQSFASYPGQQVSIINFGAKGLKAEGLFYPLSDFTNWWQGTLNEAIADEFTIHCTGEYLVFLAY” the value was “not failed”.
